The supplement of paper PMC9170038

Test system: MS2 coat protein
Assay: apparent KD of MS2 coat protein; designed switch direction (-1 OFF switch, 1 ON switch): -1; higher = weaker reporter binding
Outline: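 Designed RNA switches with common flanks were made on Illumina chips by stalled E. coli RNA polymerase. Titration with SNAP-549-labelled MS2 coat protein doubled from 0.7 or 1.5 nM up to 3 µM. Apparent KD is each design's median over clusters after curve-fitting normalised fluorescence.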

[1] = Eterna round: R95, input ligand: microRNA oligo, concentration not stated
[2] = input ligand: microRNA oligo, concentration not stated
[3] = Eterna round: R95, input ligand: FMN 200 uM
[4] = Eterna round: R95, input ligand: none

Row | Sequence | apparent KD of MS2 coat protein (input ligand: FMN 200 uM) | apparent KD of MS2 coat protein (input ligand: none) | apparent KD of MS2 coat protein [1] | apparent KD of MS2 coat protein [2] | apparent KD of MS2 coat protein [3] | apparent KD of MS2 coat protein [4]
1 | CCUCCGGCAGGAUAUGCAGGGAGGAUGUUGUGUUAUUGGUAACAUGAGGAUCACCCAUGUAGAAGGGCCAAUAC [Eternabot (L2) Solution 42] (Eterna round: R97, puzzle: Exclusion 2) | 0.0179 µM | 0.015 µM |  |  |  | 
2 | CCUCUACAUGAGGAUCACCCAUGUGAGGAUAUCAAAGCCAGAACGGAUCUCUGGCCCAUGAGAAGGUGCAUGGA [EX1 A.2] (Eterna round: R97, puzzle: Exclusion 1) | 0.119 µM | 0.0223 µM |  |  |  | 
3 | CCUCUACAUGAGGAUCACCCAUGUGAGGAUAUCCUGCGAGGAUCAAAAGAUCCUCGUGGGAGAAGGCAUAUGUA [Omei Ex1 A2] (Eterna round: R97, puzzle: Exclusion 1) | 0.0306 µM | 0.0248 µM |  |  |  | 
4 | CCUGCACAUGAGGAUCACCCAUGUCAGGAUAUCUCGCCGCGAAGAGCAACACGGUAUUAGAGAAGGGACACGGG [Bimavees] (puzzle: Exclusion 1) |  |  | 0.0245 µM |  |  | 
5 | CCUGCGGACAAAGGAUAUUGCGGUGACCGGCUCGGCGUACCGAGCCUACAUGAGGAUCACCCAUGUAAGAAGGUUGUCGCUGGU [JL ViennaUCT Qudice mod 2] (Eterna round: R96, puzzle: Exclusion NG 2) | 0.104 µM | 0.0248 µM |  | 0.0191 µM |  | 
6 | CCUUCUCCACAGGAUAUGCUCAUCUAAUGAUGAGCAGAAGGGUGGACAUGAGGAUCACCCAUGUUUAUCAAUGG [Omei Ex6 D2] (Eterna round: R97, puzzle: Exclusion 6) | 0.589 µM | 0.428 µM |  |  |  | 
7 | CCUUGACAUGAGGAUCACCCAUGUGAGGAUAUGAUGCGAUCGUCGAAAGACGAUAGCAUCAGAAGGCACAUAUG [Fiskers Ex 1 - 8] (Eterna round: R96, puzzle: Exclusion 1) | 0.0918 µM | 0.0244 µM |  | 0.0128 µM |  | 
8 | CCUUGACAUGAGGAUCACCCAUGUGAGGAUAUGAUGCGAUCGUCGAAAGACGAUAGCAUCAGAAGGCACAUAUG [Fiskers Ex 1 - 8] (puzzle: Exclusion 1) |  |  | 0.0252 µM |  |  | 
9 | CCUUGUCUGAAGGAUAUCCGCCGAAAAGGCAAGGGAGAAGGUUAGACAUGAGGAUCACCCAUGUGCCGGUGUAA [EX6 A.3] (Eterna round: R97, puzzle: Exclusion 6) | 0.0442 µM | 0.0255 µM |  |  |  | 
10 | CCUUUGUCAGGAUAUCAGAACGCGCUCGUAGGGAGCGCAAAUGAGAAGGGACAUGAGGAUCACCCAUGUAAAGA [Gequleon] (puzzle: Exclusion 4) |  |  | 0.0436 µM |  | 0.204 µM | 0.0482 µM
11 | CGAAUGUCAGGAUAUCGUGCAUACAACGAAAGUUCUAUGUGCGAGAAGGGACAUGAGGAUCACCCAUGUCUUCG [Omei Ex4 A14] (Eterna round: R97, puzzle: Exclusion 4) | 0.0756 µM | 0.0271 µM |  |  |  | 
12 | CGACUGGUAGGAUAUACAUGAGGAUCACCCAUGUACCUGACAUGAGAAUAAACCAUCGGUAGAAGGGCUAAGUC [Eternabot (L2) Solution 79] (Eterna round: R97, puzzle: Exclusion 3) | 0.0218 µM | 0.0213 µM |  |  |  | 
13 | CGAGUGUAAGGAUAUUCGGCGCCAGAGAACGAUCUGACGUAGAAGAAGGUACAUGAGGAUCACCCAUGUGGUUA [Geinzarace] (puzzle: Exclusion 4) |  |  | 0.102 µM |  | 0.0416 µM | 0.204 µM
14 | CGAUAAAGCUGAGGAUAUGAGGAGAGAGAGAGAUCAGAAGGCAGACAUGAGGAUCACCCAUGUGAGUUCUCGAAAUUAAAUAUU [Prohibition 48 - Jieux - Exclusion NG 1] (Eterna round: R96, puzzle: Exclusion NG 1) | 0.225 µM | 0.0575 µM |  | 0.047 µM |  | 
15 | CGAUGAGGAGUGAGGAUAUCGUGUUCGAAAGAACGUGAGAAGGCACAUGAGGAUCACCCAUGUGAUACUUGUCG [Omei Ex4B A15] (Eterna round: R97, puzzle: Brourd's mod of Exclusion 4) | 0.0609 µM | 0.0196 µM |  |  |  | 
16 | CGAUGCACGAGUCCACAUGAGGAUCACCCAUGUCGUGUUAGCGAGGAUAUCGGAGACACAUAGUAUGAGAAGGCGCGAACCUGA [Ex NG3 #21] (Eterna round: R96, puzzle: Exclusion NG 3) | 0.0164 µM | 0.0134 µM |  | 0.0112 µM |  | 

Row | Sequence | apparent KD of MS2 coat protein (input ligand: FMN 200 uM) | apparent KD of MS2 coat protein (input ligand: none) | apparent KD of MS2 coat protein [1] | apparent KD of MS2 coat protein [2] | apparent KD of MS2 coat protein [3] | apparent KD of MS2 coat protein [4]
17 | CGCGAACAUGAGGAUCACCCAUGUGAGGAUAUCAUGCUUCGUAGUAAACUACGAAGUGUGAGAAGGCACAUGCG [Omei Ex1 D5] (Eterna round: R97, puzzle: Exclusion 1) | 0.297 µM | 0.164 µM |  |  |  | 
18 | CGCGGAUGUAUAUGUCCGCACAUGAGGAUCACCCAUGUAAUAUAAGAUGAUAUUAAACAAAUUUUUGCUUGUCAGUU [Eternabot (L1) Solution 37] (Eterna round: R97, puzzle: Sensor, turn-off variant 1) | 0.031 µM | 0.0382 µM |  |  |  | 
19 | CGCUAUAGAGGAUAUACGAGAUCGAAAGAUCGGCGAUCCCUACAUGAGGAUCACCCAUGUAGAAGGCUAUAGCG [Mod 18 - Jieux - Exclusion 2] (Eterna round: R97, puzzle: Exclusion 2) | 0.0833 µM | 0.0157 µM |  |  |  | 
20 | CGCUGGACAGGAUAUGUUCUUGGGCACUUGAGGAUCACCCAAGUCAUCGAGACAACAGGCACAGAAGGGUUUAUGG [salish99_ex5_r4_024] (Eterna round: R97, puzzle: Exclusion 5) | 0.0307 µM | 0.0384 µM |  |  |  | 
21 | CGGAAGAUCGAAGGAUAUUGAGACAAACAGUGUCAAGAAGGUUGGGAGGACACAUGAGGAUCACCCAUGUCCAACUUUUGACGG [Eternabot solution 26] (Eterna round: R96, puzzle: Exclusion NG 1) | 0.0127 µM | 0.0124 µM |  | 0.00976 µM |  | 
22 | CGGCAAUCCUAGGAUAUGCUAGACGAGAGUCUAGCAGAAGGAGGAACAUGAGGAUCACCCAUGUGUCCUAGCCG [Mat - Exclusion 6 - Eli Mod - D15] (Eterna round: R97, puzzle: Exclusion 6) | 0.0221 µM | 0.0156 µM |  |  |  | 
23 | CGGCGACAUGAGGAUCACCCAUGUGAGGAUAUGACGGGAAAAGCGUGAGCGGUUUGUGUCAGAAGGCGCGUAGG [salish99_ex1_r4_084] (Eterna round: R97, puzzle: Exclusion 1) | 0.0208 µM | 0.0287 µM |  |  |  | 
24 | CGGGACGUCCUGAUAAUAAGACAUGAGGAUCACCCAUGUCGGCAGGAUAUCAGUCCUUACGGUUUUGAGAAGGGUCGACAACCA [Birace] (Eterna round: R96, puzzle: Exclusion NG 3) | 0.0141 µM | 0.0134 µM |  | 0.00827 µM |  | 
25 | CGGUCCUGAGUGAGGAUAUUGUCAGGCGAAGCCUGCAAGAAGGUACUUGAGGAUCACCCAAGUACGCUCUUGGC [Estimama] (Eterna round: R97, puzzle: Brourd's mod of Exclusion 4) | 0.0212 µM | 0.0168 µM |  |  |  | 
26 | CGGUGCUGAGGAUAUACAUGAGGAUCACCCAUGUGUUCCAGCUAGGUGACUGGCAAAUGUAGAAGGCGGUACUG [JL-ex3-3.36 Brourd mod] (puzzle: Exclusion 3) |  |  | 0.0777 µM |  | 0.0407 µM | 0.105 µM
27 | CGGUGCUGAGGAUAUACAUGAGGAUCACCCAUGUGUUCCAGCUAGGUGACUGGCGGAUGUAGAAGGCGGUACUG [JL-ex3-3.39 Brourd mod] (puzzle: Exclusion 3) |  |  | 0.0312 µM |  | 0.245 µM | 0.0648 µM
28 | CGGUGUAGAGGAUAUACGUGGAUAUAAGAACAUGAUAAUUUACAUGAGGAUCACCCAUGUAGAAGGCUAUAGCG [JR_Ex2_Sub080] (Eterna round: R97, puzzle: Exclusion 2) | 0.0748 µM | 0.207 µM |  |  |  | 
29 | CGUACUGAAGUGAGGAUAUUGUCUCGGAUACGAAACAAGAAGGCACAUGAGGAUCACCCAUGUUGACAGUACGA [Malc #30 mod 7] (puzzle: Brourd's mod of Exclusion 4) |  |  | 0.015 µM |  |  | 
30 | CGUAUGUCAGGAUAUCGUGCAUACAACGAAAGUUCUAUGUGCGAGAAGGGACAUGAGGAUCACCCAUGUUUACG [Omei Ex4 A12] (Eterna round: R97, puzzle: Exclusion 4) | 0.089 µM | 0.0261 µM |  |  |  | 
31 | CGUCAGUGAGGAUAUGGUAACAUUUACAUGAGGAUCACCCAUGUUUCAUGGGACUAAAGACUAGAAGGCACUGACG [JR_Ex5_Sub031] (Eterna round: R97, puzzle: Exclusion 5) | 0.0809 µM | 0.0369 µM |  |  |  | 
